Measurements from article PMC10579713, “Melatonin enhances KCl salinity tolerance by maintaining K+ homeostasis in Malus hupehensis”.

T1: MdWRKY53 (Malus hupehensis (CDS amplified from; …, UniProt A0A498JJJ9 1-351)
T1 sequence: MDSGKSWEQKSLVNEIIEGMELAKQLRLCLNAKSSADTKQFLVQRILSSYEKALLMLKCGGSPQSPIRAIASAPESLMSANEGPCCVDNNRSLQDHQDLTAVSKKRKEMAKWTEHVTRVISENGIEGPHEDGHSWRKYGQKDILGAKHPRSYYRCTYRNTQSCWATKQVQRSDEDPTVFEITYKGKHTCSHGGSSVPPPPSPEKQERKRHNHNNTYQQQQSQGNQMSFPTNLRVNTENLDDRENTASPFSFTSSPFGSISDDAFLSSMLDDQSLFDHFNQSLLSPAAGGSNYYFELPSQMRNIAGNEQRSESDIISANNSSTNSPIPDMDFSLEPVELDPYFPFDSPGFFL


Biological target: T1, MdWRKY53
Test: EMSA; unlabeled competitor reduced the binding; LightShift chemiluminescence EMSA kit (Thermo), manufacturer's instructions; buffer, salt, pH and temperature not stated
Conditions: protein: recombinant; tags: GST (N-terminal, pGEX6p-1); blunt

Row | Binder | binding result
1 | MdGORK1 promoter W-box probe (dsDNA) DNA 1: TTATGTCACCTTATGTTTTTGACACAATTTTTATAACGTTGACACAG DNA 2: CTGTGTCAACGTTATAAAAATTGTGTCAAAAACATAAGGTGACATAA | binds
2 | MdNHX2 promoter W-box probe (dsDNA) DNA 1: TGCACACGTCTTTCGAAGTTGACCAGATCAGTGTGCTTTGA DNA 2: TCAAAGCACACTGATCTGGTCAACTTCGAAAGACGTGTGCA | binds
